According to IntAct's records for PubMed 31515488:

B1: Late cornified envelope protein 1B (Homo sapiens), Q5T7P3 (parent)
chain: MSCQQNQQQCQPPPKCIPKCPPKCLTPRCPPKCPPKCPPVSSCCSVSSGGCCGSSSGGSCGSSSGGCCSSGGGGCCLSHHRRRRSHCHRPQSSGCCSQPSGGSSCCGGGSGQHSGGCC
partner: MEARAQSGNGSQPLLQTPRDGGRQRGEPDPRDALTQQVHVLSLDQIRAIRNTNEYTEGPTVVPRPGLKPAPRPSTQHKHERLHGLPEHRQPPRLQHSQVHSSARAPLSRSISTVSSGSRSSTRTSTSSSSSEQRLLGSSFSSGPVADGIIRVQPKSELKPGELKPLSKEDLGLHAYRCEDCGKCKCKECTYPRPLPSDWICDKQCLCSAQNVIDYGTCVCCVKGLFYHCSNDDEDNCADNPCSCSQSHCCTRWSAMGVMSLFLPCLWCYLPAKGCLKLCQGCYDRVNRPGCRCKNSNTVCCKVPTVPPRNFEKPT
B2: EKC/KEOPS complex subunit TP53RK (Homo sapiens), Q96S44 (parent)
chain: MAAARATTPADGEEPAPEAEALAAARERSSRFLSGLELVKQGAEARVFRGRFQGRAAVIKHRFPKGYRHPALEARLGRRRTVQEARALLRCRRAGISAPVVFFVDYASNCLYMEEIEGSVTVRDYIQSTMETEKTPQGLSNLAKTIGQVLARMHDEDLIHGDLTTSNMLLKPPLEQLNIVLIDFGLSFISALPEDKGVDLYVLEKAFLSTHPNTETVFEAFLKSYSTSSKKARPVLKKLDEVRLRGRKRSMVG
B3: Maspardin (Homo sapiens), Q9NZD8 (parent)
chain: MGEIKVSPDYNWFRGTVPLKKIIVDDDDSKIWSLYDAGPRSIRCPLIFLPPVSGTADVFFRQILALTGWGYRVIALQYPVYWDHLEFCDGFRKLLDHLQLDKVHLFGASLGGFLAQKFAEYTHKSPRVHSLILCNSFSDTSIFNQTWTANSFWLMPAFMLKKIVLGNFSSGPVDPMMADAIDFMVDRLESLGQSELASRLTLNCQNSYVEPHKIRDIPVTIMDVFDQSALSTEAKEEMYKLYPNARRAHLKTGGNFPYLCRSAEVNLYVQIHLLQFHGTKYAAIDPSMVSAEELEVQKGSLGISQEEQ
partner: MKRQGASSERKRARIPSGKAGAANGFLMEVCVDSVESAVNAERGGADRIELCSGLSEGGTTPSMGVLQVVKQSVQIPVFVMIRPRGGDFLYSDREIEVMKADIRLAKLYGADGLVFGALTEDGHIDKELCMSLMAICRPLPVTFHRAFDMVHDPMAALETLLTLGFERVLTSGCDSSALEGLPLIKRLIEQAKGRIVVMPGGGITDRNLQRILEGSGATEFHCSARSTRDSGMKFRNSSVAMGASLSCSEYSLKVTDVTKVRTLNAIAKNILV
B4: Syntenin-2 (Homo sapiens), Q9H190 (parent)
chain: MSSLYPSLEDLKVDQAIQAQVRASPKMPALPVQATAISPPPVLYPNLAELENYMGLSLSSQEVQESLLQIPEGDSTAVSGPGPGQMVAPVTGYSLGVRRAEIKPGVREIHLCKDERGKTGLRLRKVDQGLFVQLVQANTPASLVGLRFGDQLLQIDGRDCAGWSSHKAHQVVKKASGDKIVVVVRDRPFQRTVTMHKDSMGHVGFVIKKGKIVSLVKGSSAARNGLLTNHYVCEVDGQNVIGLKDKKIMEILATAGNVVTLTIIPSVIYEHMVKKLPPVLLHHTMDHSIPDA
partner: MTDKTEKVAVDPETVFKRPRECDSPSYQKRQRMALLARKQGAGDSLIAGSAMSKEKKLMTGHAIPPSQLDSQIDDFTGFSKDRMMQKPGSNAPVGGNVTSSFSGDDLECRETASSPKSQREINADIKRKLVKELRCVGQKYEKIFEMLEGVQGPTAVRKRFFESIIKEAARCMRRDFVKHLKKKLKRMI
B5: ATPase PAAT (Homo sapiens), Q9H8K7 (parent)
chain: METRTEDGGLTRRPTLASSWDVAGGALTHSLLLTRAGLGPGDFDWEELLAPPAPGQDLVILKRNHNNKDENPCFLYLRCGPDGGEEIASIGILSSARNMEVYLGEEYCGTSRGKNVCTVLDDSEHEKIILYKKNLKLESSTHACKIKLLSFGERQCVFISKVVVHMRSVFANSSTSSPALGSRIDLDKVQTIMESMGSKLSPGAQQLMDMVRCQQRNCIPIGEQLQSVLGNSGYKHMIGLQSSSTLGTLNKSSSTPFPFRTGLTSGNVTENLQTYIDKSTQLPGGENSTKLDECKVMPQNHSFLENDLKNAMASFLPKKVSDNSNIPNSELLPFLQNLCSQVNHLHVGNKTECQENITKHGERILGVGMEEQSICSYLEKILSKNMELMEKKLMDYIDQRIHELQEHIDDKIALLLDLLQNPNSPPTGIPLRHYDSGERLSNGER
partner: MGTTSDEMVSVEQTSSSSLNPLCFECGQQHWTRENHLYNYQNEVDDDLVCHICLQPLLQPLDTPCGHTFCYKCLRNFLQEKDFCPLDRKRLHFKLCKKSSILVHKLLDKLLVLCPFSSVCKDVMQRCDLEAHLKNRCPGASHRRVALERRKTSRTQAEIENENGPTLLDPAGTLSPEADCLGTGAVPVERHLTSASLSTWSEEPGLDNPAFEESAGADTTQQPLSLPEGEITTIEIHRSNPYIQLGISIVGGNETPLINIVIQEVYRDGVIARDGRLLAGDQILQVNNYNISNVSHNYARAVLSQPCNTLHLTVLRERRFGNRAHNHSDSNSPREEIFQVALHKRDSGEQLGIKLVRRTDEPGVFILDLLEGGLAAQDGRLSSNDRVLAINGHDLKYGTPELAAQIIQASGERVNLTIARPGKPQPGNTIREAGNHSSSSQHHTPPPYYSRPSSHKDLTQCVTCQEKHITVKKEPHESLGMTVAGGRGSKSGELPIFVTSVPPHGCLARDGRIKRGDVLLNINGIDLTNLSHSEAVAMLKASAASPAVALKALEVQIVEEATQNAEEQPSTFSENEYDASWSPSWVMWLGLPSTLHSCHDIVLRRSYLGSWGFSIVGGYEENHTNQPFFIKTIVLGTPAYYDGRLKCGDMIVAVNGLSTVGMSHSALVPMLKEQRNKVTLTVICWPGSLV
B6: Phenazine biosynthesis-like domain-containing protein (Homo sapiens), P30039 (parent)
chain: MKLPIFIADAFTARAFRGNPAAVCLLENELDEDMHQKIAREMNLSETAFIRKLHPTDNFAQSSCFGLRWFTPASEVPLCGHATLASAAVLFHKIKNMNSTLTFVTLSGELRARRAEDGIVLDLPLYPAHPQDFHEVEDLIKTAIGNTLVQDICYSPDTQKLLVRLSDVYNRSFLENLKVNTENLLQVENTGKVKGLILTLKGEPGGQTQAFDFYSRYFAPWVGVAEDPVTGSAHAVLSSYWSQHLGKKEMHAFQCSHRGGELGISLRPDGRVDIRGGAAVVLEGTLTA
partner: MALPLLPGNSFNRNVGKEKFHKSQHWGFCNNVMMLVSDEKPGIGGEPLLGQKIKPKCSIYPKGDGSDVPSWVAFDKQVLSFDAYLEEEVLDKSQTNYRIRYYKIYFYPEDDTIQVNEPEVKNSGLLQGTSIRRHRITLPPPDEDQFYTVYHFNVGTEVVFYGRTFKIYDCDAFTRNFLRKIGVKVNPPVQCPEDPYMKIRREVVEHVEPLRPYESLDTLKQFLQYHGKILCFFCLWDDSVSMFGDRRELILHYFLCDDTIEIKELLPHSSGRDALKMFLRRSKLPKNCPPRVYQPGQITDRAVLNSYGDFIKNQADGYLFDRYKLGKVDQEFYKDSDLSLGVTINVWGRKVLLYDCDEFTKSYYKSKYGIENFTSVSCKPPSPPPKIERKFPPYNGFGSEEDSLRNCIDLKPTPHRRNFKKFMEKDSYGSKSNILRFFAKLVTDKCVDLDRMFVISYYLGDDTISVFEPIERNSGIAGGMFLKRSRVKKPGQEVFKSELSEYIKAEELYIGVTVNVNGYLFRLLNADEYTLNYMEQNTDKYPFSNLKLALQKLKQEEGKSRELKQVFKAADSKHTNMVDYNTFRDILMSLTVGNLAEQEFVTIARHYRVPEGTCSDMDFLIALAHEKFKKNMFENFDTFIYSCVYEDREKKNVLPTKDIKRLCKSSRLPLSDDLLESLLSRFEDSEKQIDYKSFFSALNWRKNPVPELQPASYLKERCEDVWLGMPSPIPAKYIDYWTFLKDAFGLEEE

Variants of: B1
Details: with spy2_human SPRY2, O43597

Row | Variant | effect of a mutation on the interaction
1 | H113Q | with no effect
2 | G108E | with no effect

Variants of: B2
Details: with ccdb1_human CCNDBP1, O95273
Sequence of ccdb1_human CCNDBP1, O95273 (O95273 whole entry): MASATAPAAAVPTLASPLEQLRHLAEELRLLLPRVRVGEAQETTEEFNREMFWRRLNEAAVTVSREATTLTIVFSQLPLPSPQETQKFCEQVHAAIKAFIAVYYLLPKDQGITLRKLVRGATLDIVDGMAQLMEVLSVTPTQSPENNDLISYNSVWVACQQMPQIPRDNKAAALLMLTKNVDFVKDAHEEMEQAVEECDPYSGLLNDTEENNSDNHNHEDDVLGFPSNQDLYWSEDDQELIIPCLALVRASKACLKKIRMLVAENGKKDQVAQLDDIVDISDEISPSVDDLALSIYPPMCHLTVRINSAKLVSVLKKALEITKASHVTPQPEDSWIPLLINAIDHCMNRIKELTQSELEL

Row | Variant | effect of a mutation on the interaction
3 | R123Q | disrupting interaction strength
4 | T8M | with no effect
5 | T129A | with no effect

Variants of: B3
Details: with cutc_human CUTC

Row | Variant | effect of a mutation on the interaction
6 | A180T | with no effect

Variants of: B4
Details: with ct453_human CT45A3, Q8NHU0

Row | Variant | effect of a mutation on the interaction
7 | R223C | with no effect

Variants of: B5
Details: with lnx2_human LNX2, Q8N448

Row | Variant | effect of a mutation on the interaction
8 | G8R | with no effect

Variants of: B6
Details: with efhc2_human EFHC2, Q5JST6

Row | Variant | effect of a mutation on the interaction
9 | A235T | disrupting interaction strength
10 | H257R | disrupting interaction strength
11 | Y154C | disrupting interaction strength
